Reference: publication PMC5117854, “Functional asymmetry and electron flow in the bovine respirasome” (eLife, 2016)

T1: subunit 1 of complex III (bovine (endogenous in heart …, UniProt P31800 35-480))
T1 construct: complex III subunit 1, bovine heart; stood in the assay as a subunit of the complex III dimer within the respirasome; also called subunit 1 of the bc1 complex; source: endogenous, bovine heart mitochondria; part of the supercomplex I1III2IV1 purified in amphipol A8-35
T1 sequence (looked up): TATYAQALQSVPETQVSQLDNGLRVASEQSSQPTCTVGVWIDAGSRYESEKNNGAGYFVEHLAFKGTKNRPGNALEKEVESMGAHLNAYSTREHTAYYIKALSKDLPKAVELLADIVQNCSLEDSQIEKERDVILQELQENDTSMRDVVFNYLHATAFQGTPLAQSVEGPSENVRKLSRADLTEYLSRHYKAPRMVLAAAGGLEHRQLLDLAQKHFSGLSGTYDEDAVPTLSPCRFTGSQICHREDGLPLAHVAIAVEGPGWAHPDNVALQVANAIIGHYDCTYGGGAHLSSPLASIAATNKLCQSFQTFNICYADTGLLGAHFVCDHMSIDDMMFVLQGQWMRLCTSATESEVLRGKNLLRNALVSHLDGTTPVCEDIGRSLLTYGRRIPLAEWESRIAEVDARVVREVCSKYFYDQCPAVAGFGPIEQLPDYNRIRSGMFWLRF


How the values were obtained:
[1] = target: T2, subunit ND5 of complex I (bovine (endogenous in heart …, UniProt P03920 1-606)); test: cryo-EM structure; class 1 map of supercomplex I1III2IV1 (17,094 particles, 9.1 Å; transmembrane region 8.6 Å); native supercomplex co-purified from bovine heart mitochondria (PCC-a-M, then amphipol A8-35, density gradient); atomic models of complexes I, III and IV docked; conditions: both partners purified
T2 construct: complex I core subunit ND5, bovine heart; stood in the assay as a subunit of complex I within the respirasome; source: endogenous, bovine heart mitochondria; part of the supercomplex I1III2IV1 purified in amphipol A8-35
T2 sequence (P03920 whole entry, one chain of several): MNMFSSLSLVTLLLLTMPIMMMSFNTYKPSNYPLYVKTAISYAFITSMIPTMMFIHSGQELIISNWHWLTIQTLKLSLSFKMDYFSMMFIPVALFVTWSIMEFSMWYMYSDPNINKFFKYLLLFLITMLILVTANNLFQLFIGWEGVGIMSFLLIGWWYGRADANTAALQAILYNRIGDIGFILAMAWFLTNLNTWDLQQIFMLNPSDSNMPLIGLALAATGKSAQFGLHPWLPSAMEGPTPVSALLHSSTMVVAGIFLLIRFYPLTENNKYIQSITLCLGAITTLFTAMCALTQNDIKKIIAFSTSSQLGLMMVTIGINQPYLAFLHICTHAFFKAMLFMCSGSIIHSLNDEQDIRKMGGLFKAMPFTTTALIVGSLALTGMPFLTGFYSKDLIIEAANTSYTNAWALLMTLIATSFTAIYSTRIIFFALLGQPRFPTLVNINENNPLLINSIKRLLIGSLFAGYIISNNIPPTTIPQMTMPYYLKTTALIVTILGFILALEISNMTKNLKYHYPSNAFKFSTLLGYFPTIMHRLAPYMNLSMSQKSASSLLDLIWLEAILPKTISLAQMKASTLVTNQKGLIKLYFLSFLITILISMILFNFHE

[2] = target: T1, subunit 1 of complex III; test: as above; conditions: both partners purified

| binding result [2] | Binder | binding result [1] |
| --- | --- | --- |
|  | SHYEEGPGKNIPFSVENKWRLLAMMTLFFGSGFAAPFFIVRHQLLKK (natural protein, UniProt P00430 17-63, looked up, complex IV subunit COX7C, bovine heart; stood in the assay as a subunit of complex IV within the respirasome; source: endogenous, bovine heart mitochondria; part of the supercomplex I1III2IV1 purified in amphipol A8-35) [complex IV subunit COX7C] | binds |
| binds | COX7A1 of cytochrome c oxidase (complex IV) (natural protein, UniProt P07470 22-80, looked up, complex IV subunit COX7A1, bovine heart; stood in the assay as a subunit of complex IV within the respirasome; source: endogenous, bovine heart mitochondria; part of the supercomplex I1III2IV1 purified in amphipol A8-35) FENRVAEKQKLFQEDNGLPVHLKGGATDNILYRVTMTLCLGGTLYSLYCLGWASFPHKK |  |
